Measurements: the RNAGym collection of RNA variant scans (doi:10.1073/pnas.2313332121)

B1: TPR t1 (parent)
chain: GACCAAUCUGCCCUCAGAGCUCGAGAACAUCUUCGGAUGCAGAGGAGGCAGGCUUCGGUGGCGCGAUAGCGCCAACGUCCUCAACCUCCAAUGCAUCCCACCACAUGAUGAUGCCUGAAGAGCCUUGGUUUUUUG

Variants of: B1
Experiment: polymerase ribozyme fitness, log enrichment relative to wild type (log ratio); higher = more active; in vitro selection for triplet polymerase activity
In short: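 For each subunit of a heterodimeric triplet polymerase ribozyme, a mutant library was built by PCR and transcribed, then taken through a single in vitro selection round in triplicate. Selection involved annealing to a biotinylated primer, the partner subunit and triplets, incubation frozen at −7 °C, gel excision of extended constructs, capture on streptavidin beads and RT-PCR. Genotypes were retained after Illumina sequencing of inputs and outputs only with ≥10 input reads and ≥1 read in each output. Fitness is defined as the logarithm of a genotype's enrichment relative to wild-type enrichment, using inverse-variance-weighted averages across replicates, with the logarithm taken to base 2.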

Q: Which “polymerase ribozyme fitness (log ratio)” value does the source give for GACCAAUCUGCCCUCAGAGCUCGAGAACAUCUUCGGAUGCAGAGGAGGCAGGCUUCGGUUGCGCGAUAGCGCCAACGUCCUCAACCUCCAAUGCAUCGCACCACAUGAUGAUGCCUGAAGAGCCUUGGUUUUUUG [G60U C98G] here?
A: -5.35

Q: With GACCAAUCUGCCCUCAGAGCUCGAGAACAUCUUCGGAUGCAGAGGAGGCAGGCUUCGGUUUCGCGAUAGCGCCAACGUCCUCAACCUCCAAUGCAUCCCACCACAUGAUGAUGCCUGAAGAGCCUUGGUUUUUUG [G60U G61U] as the variant, how does the “polymerase ribozyme fitness (log ratio)” value read?
A: -1.93

Q: With GACCAAUCUGCCCUCAGAGCUCGAGAACAUCUUCGGAUGCAGAGGAGGCAGGCUUCGGUUACGCGAUAGCGCCAACGUCCUCAACCUCCAAUGCAUCCCACCACAUGAUGAUGCCUGAAGAGCCUUGGUUUUUUG [G60U G61A] as the variant, how does the “polymerase ribozyme fitness (log ratio)” value read?
A: -0.341

Q: Which “polymerase ribozyme fitness (log ratio)” value does the source give for GACCAAUCUGCCCUCAGAGCUCGAGAACAUCUUCGGAUGCAGAGGAGGCAGGCUUCGGUUGCGCGAUAGCGCCAACGUCCUCAACCUCGAAUGCAUCCCAUCACAUGAUGAAGCUUGAAGAGCCUUGGUUUUUUG [G60U C89G C101U U112A C115U] here?
A: -4.63

Q: Which “polymerase ribozyme fitness (log ratio)” value does the source give for GACCAAUCUGCCCUCAGAGCUCGAGAACAUCUUCGGAUGCAGAGGAGGCAGGCUUCGGUUGCGCGAUAGCGCCAACGUCCUCAACCUCAAAUGCAUCCCACCACAUGAUGCUGACUGAAGAGCCUUGGUUUUUUG [G60U C89A A111C C114A] here?
A: -4.37

Q: For GACCAAUCUGCCCUCAGAGCUCGAGAACAUCUUCGGAUGCAGAGGAGGCAGGCUUCGGUUGUGCGAUAGCGCCAACGUCCUCAACCUCCAAUGCAUCCCACCACAUGAUGAUGCCUUAAGAGCCUUGGUUUUUUG [G60U C62U G117U], which “polymerase ribozyme fitness (log ratio)” value is on record?
A: -5.73

Q: Which “polymerase ribozyme fitness (log ratio)” value does the source give for GACCAAUCUGCCCUCAGAGCUCGAGAACAUCUUCGGAUGCAGAGGAGGCAGGCUUCGGUUGCUCGAUAGCGCCAACGUCCUCAACCUCCAAUGCAUCCUAGCACAUGAUGAUGCGUGAAGAUCGUUGGUUUUUUG [G60U G63U C99U C101G C115G G122U C124G] here?
A: -6.39

Q: Which “polymerase ribozyme fitness (log ratio)” value does the source give for GACCAAUCUGCCCUCAGAGCUCGAGAACAUCUUCGGAUGCAGAGGAGGCAGGCUUCGGUUGCGCGAUAGUGCCAACGUCCUCAACCUCCAAUGUAUCCCACCACAUGAUGAUGCCUGAAGAGCCUUGGUUUUUUG [G60U C70U C94U] here?
A: -2.63

Q: With GACCAAUCUGCCCUCAGAGCUCGAGAACAUCUUCGGAUGCAGAGGAGGCAGGCUUCGGUUGUGCGAUAGCGCCAACGGCAUCAACCUCCAAUGCAUCCCACCACAUGAUGACGCCUGAAGAGCCUUGGUUUUUUG [G60U C62U U78G C80A U112C] as the variant, how does the “polymerase ribozyme fitness (log ratio)” value read?
A: -1.42

Q: With GACCAAUCUGCCCUCAGAGCUCGAGAACAUCUUCGGAUGCAGAGGAGGCAGGCUUCGGUUGCGCGAUAGCGCCAACGUCAUCAACCUCCAAUGCAUCCCACCACAUGAUGAUGCCUGAAGAGCCUUGGUUUUUUG [G60U C80A] as the variant, how does the “polymerase ribozyme fitness (log ratio)” value read?
A: -3.33

Q: With GACCAAUCUGCCCUCAGAGCUCGAGAACAUCUUCGGAUGCAGAGGAGGCAGGCUUCGGUUGCGCGAUAGCGCCAACGUCCUCAACCUCCAAUGCAUCCCACCACAUGAUGAUUCCUGAAGAGCCUUGGUUUUUUG [G60U G113U] as the variant, how does the “polymerase ribozyme fitness (log ratio)” value read?
A: -2.04

Q: Which “polymerase ribozyme fitness (log ratio)” value does the source give for GACCAAUCUGCCCUCAGAGCUCGAGAACAUCUUCGGAUGCAGAGGAGGCAGGCUUCGGUUGCGCGAUAGCGCCAACGUCCUCAACCUCCAAUGCAUCCCACCACAUGAUGAUACCUGAAGAGCCUUGGUUUUUUG [G60U G113A] here?
A: -0.847

Q: With GACCAAUCUGCCCUCAGAGCUCGAGAACAUCUUCGGAUGCAGAGGAGGCAGGCUUCGGUUGCGCGAUAGCGCCAACGUCCUCAACAUCCAAUGCAUCCCACCACAUGAUGAUGCCUGAAGAGCCUUGGUUUUUUG [G60U C86A] as the variant, how does the “polymerase ribozyme fitness (log ratio)” value read?
A: -0.471

Q: Which “polymerase ribozyme fitness (log ratio)” value does the source give for GACCAAUCUGCCCUCAGAGCUCGAGAACAUCUUCGGAUGCAGAGGAGGCAGGCUUCGGUUGCGCGAUAGCGCCAACGUCCUCAACCUCCAAUGCAUCCCACCACAUGAUGAUGCAUGAAGAGCCUUGGUUUUUUG [G60U C115A] here?
A: 0.226

Q: For GACCAAUCUGCCCUCAGAGCUCGAGAACAUCUUCGGAUGCAGAGGAGGCAGGCUUCGGUUGCGCGAUAGCGCCAACGUCCUCAACCUCCAAUGCAUCCCACCACAUGAUCAUGCCUGAAGAGUCUUGGUUUUUUG [G60U G110C C123U], which “polymerase ribozyme fitness (log ratio)” value is on record?
A: -5.58

Q: For GACCAAUCUGCCCUCAGAGCUCGAGAACAUCUUCGGAUGCAGAGGAGGCAGGCUUCGGUUGCACGAUAGCGCCAACGUCCUCAACCUCCAAUGCAUCCCACCACAUGAUGAUGCCUGAAGAGCCUUGGUUUUUUG [G60U G63A], which “polymerase ribozyme fitness (log ratio)” value is on record?
A: -4.69

Q: Which “polymerase ribozyme fitness (log ratio)” value does the source give for GACCAAUCUGCCCUCAGAGCUCGAGAACAUCUUCGGAUGCAGAGGAGGCAGGCUUCGGUUGCUCGAUAGCGCCAACGUCCUCAACCUCCAAUGCAUCCCACCACAUGAUGAUGCCUGAAGAGCCUUGGUUUUUUG [G60U G63U] here?
A: -4.69

Q: With GACCAAUCUGCCCUCAGAGCUCGAGAACAUCUUCGGAUGCAGAGGAGGCAGGCUUCGGUUGCGCGAUAGCACCAACGUCCUCAACCUCCAAGGCAUCCCACCACAUGAUGAUGCCUGAAGAGACUUGGUUUUUUG [G60U G71A U92G C123A] as the variant, how does the “polymerase ribozyme fitness (log ratio)” value read?
A: -6.18

Q: Which “polymerase ribozyme fitness (log ratio)” value does the source give for GACCAAUCUGCCCUCAGAGCUCGAGAACAUCUUCGGAUGCAGAGGAGGCAGGCUUCGGUUGCGCGAUAGCGCCAACGUACUCAACCUCCAAUGCAUCCCACCACAUGAUGAUGCCUGAAGAGCCUUGGUUUUUUG [G60U C79A] here?
A: -0.593

Q: For GACCAAUCUGCCCUCAGAGCUCGAGAACAUCUUCGGAUGCAGAGGAGGCAGGCUUCGGUUGCGCGAUAGCGCCAACGUCCUCAACCUCCAAUUCAUCCCACCACAUGAUGAUGCCUGAAGAGCCUUGGUUUUUUG [G60U G93U], which “polymerase ribozyme fitness (log ratio)” value is on record?
A: -1.03

Q: For GACCAAUCUGCCCUCAGAGCUCGAGAACAUCUUCGGAUGCAGAGGAGGCAGGCUUCGGUUGCGCGAUAGAGCCAACGUCCUCAACCUCCAAUGCAUCCCACCACAUGAUGAUGUCUGAAGAGCCUUGGUUUUUUG [G60U C70A C114U], which “polymerase ribozyme fitness (log ratio)” value is on record?
A: -7.08
